Holding throughout (experiment): BLI
(In general: BLI is a label-free optical method that tracks binding on a fibre tip over time.)

Test [1] addresses T1, GST-tagged Rac1 (Q61L) (UniProt P63000 1-192, Q61L).
The target in test [2] is T2, GST-tagged RhoA (Q63L) (UniProt P61586 1-193, Q63L).
Test [3] deals with T3, GST-tagged Rac1F37W (Q61L) (UniProt P63000 1-192, F37W | Q61L).
The target in test [4] is T1, GST-tagged Rac1 (Q61L). This is another data set of the same source.
The target of test [5] is T2, GST-tagged RhoA (Q63L). This is another data set of the same source.
Test [6] has as its target T3, GST-tagged Rac1F37W (Q61L). This is another data set of the same source.

As usually defined, the koff is the rate constant with which the complex falls apart. Usually Kd stands for the equilibrium constant for the complex coming apart.

B1: 6xHis-tagged RBD_(ROCK1) (domain or fragment)
chain: KDHTVSRLEEANSMLTKDIEILRRENEELTEKMKKAEEEYKLEKEEEISNLKAAFEKNINTERTLKTQAVNKLAEIMNRKDF
As to B1, the dissociation rate constant (koff) came to 0.00156 s⁻¹ with GST-tagged Rac1 (Q61L) [1], 0.000699 s⁻¹ in the test with GST-tagged RhoA (Q63L) [2] and 0.00474 s⁻¹ in test [3]. Besides, the Kd with GST-tagged Rac1 (Q61L) [4] was 56 nM; with GST-tagged RhoA (Q63L) [5] it was 31 nM; in test [6], 179 nM.

Source of the values: paper PMC12579213 (2025).
